From patent US20130345115A1 come the findings set out here.

For test [1], the target named is Wild type H4 nucleosome (mononucleosome with FLAG-HA-tagged wild type human H4) (human; human (293T cells)) (UniProt P62805). Kind of test: MudPIT, co-purification.
The target of test [2] is (Δ1-28) H4 nucleosome (mononucleosome with FLAG-HA-tagged tailless human H4 lacking the first 28 amino acids) (human; human (293T cells)) (UniProt P62805). Kind of test: MudPIT, co-purification.

In the case of “SWI/SNF related, matrix associated, actin dependent regulator of chromatin, subfamily a, member 5 (from UniProt O60264 2-1052)”, in test [1], the amino acid coverage is 20% and the peptide count is 9 peptides. In test [2], this substance had an amino acid coverage of 28.3% and a peptide count of 13 peptides.

Regarding “X-ray repair complementing defective repair in Chinese hamster cells 5 (from UniProt P13010 2-732)”, in test [1], the amino acid coverage came out at 4.4% and the peptide count came to 2 peptides. In addition, in test [2], the amino acid coverage was 5.3% and the peptide count turned out to be 2 peptides.

In test [1], “X-ray repair complementing defective repair in Chinese hamster cells 6 (from UniProt P12956 2-609)” displayed an amino acid coverage of 5.7% and a peptide count of 2 peptides. In test [2], this substance returned an amino acid coverage of 3.2% and a peptide count of 1 peptides.

In test [1], “chromatin assembly factor 1, subunit A (from UniProt Q13111 1-956)” showed an amino acid coverage of 5.5% and a peptide count of 3 peptides. In test [2], this substance had an amino acid coverage of 4.9% and a peptide count of 3 peptides.

In the case of “chromobox homolog 1 (HP1 beta homolog Drosophila) (from UniProt P83916 1-185)”, in test [1], the amino acid coverage worked out at 17.3% and the peptide count is 2 peptides. In test [2], the amino acid coverage is 22.8% and the peptide count came to 3 peptides.

In test [1], “chromobox homolog 3 (HP1 gamma homolog, Drosophila) (from UniProt Q13185 2-183)” yielded an amino acid coverage of 13.2% and a peptide count of 2 peptides. In test [2], this substance gave an amino acid coverage of 14.7% and a peptide count of 2 peptides.

In test [1], “chromobox homolog 5 (HP1 alpha homolog, Drosophila) (from UniProt P45973 1-191)” showed an amino acid coverage of 21.4% and a peptide count of 3 peptides. For the same substance, in test [2], the amino acid coverage turned out to be 21.4% and the peptide count stood at 3 peptides.

Regarding “chromodomain helicase DNA binding protein 4 (from UniProt Q14839 1-1912)”, the amino acid coverage in test [1] worked out at 1.2%; in test [2], 0.6%. Also, the peptide count in test [1] came to 2 peptides; in test [2], 1 peptides.

“damage-specific DNA binding protein 1, 127 kDa (from UniProt Q16531 2-1140)”: in test [1], the amino acid coverage turned out to be 5.4% and the peptide count came to 3 peptides. Further, in test [2], the amino acid coverage stood at 3.7% and the peptide count is 2 peptides.

In the case of “euchromatic histone-lysine N-methyltransferase 2 (G9a) (from UniProt Q96KQ7 2-1210) (enzyme)”, in test [1], the amino acid coverage was found to be 4% and the peptide count is 2 peptides. Also, in test [2], the peptide count turned out to be 0 peptides.

In test [1], “histone H2AX (from UniProt P16104 2-143)” registered an amino acid coverage of 13.7% and a peptide count of 2 peptides. In test [2], this substance yielded an amino acid coverage of 8.4% and a peptide count of 1 peptides.

Regarding “histone cluster 1, H1a (HIST1H1A) (from UniProt Q02539 2-215)”, in test [1], the amino acid coverage was determined as 11.2% and the peptide count is 2 peptides. Further, in test [2], the amino acid coverage amounted to 11.8% and the peptide count was 2 peptides.

In test [1], “histone cluster 1, H1b (HIST1H1B) (from UniProt P16401 2-226)” came in with an amino acid coverage of 12.5% and a peptide count of 2 peptides. In test [2], this substance displayed an amino acid coverage of 12.8% and a peptide count of 2 peptides.

Consider “histone cluster 1, H1c (HIST1H1C) (from UniProt P16403 2-213)”, for which, in test [1], the amino acid coverage was found to be 10.3% and the peptide count is 2 peptides. In test [2], this substance showed an amino acid coverage of 12.3% and a peptide count of 2 peptides.

In the case of “histone cluster 1, H1d (HIST1H1D) (from UniProt P16402 2-221)”, in test [1], the amino acid coverage was 8.6% and the peptide count is 1 peptides. Moreover, in test [2], the amino acid coverage came to 6.4% and the peptide count came out at 1 peptides.

For the substance “histone cluster 1, H1e (HIST1H1E) (from UniProt P10412 2-219)”, the amino acid coverage was determined as 6.2% in test [1] and 11.8% in test [2]. Further, the peptide count in test [1] was determined as 1 peptides; in test [2] it was 2 peptides.

As for “histone deacetylase 1 (from UniProt Q13547 1-482) (enzyme)”, in test [1], the amino acid coverage worked out at 12.9% and the peptide count came to 5 peptides. In test [2], the peptide count came out at 0 peptides.

“macroH2A1.1 and macroH2A1.2 (from UniProt O75367 1-369)”: in test [1], the amino acid coverage is 55.1% and the peptide count was determined as 11 peptides. In test [2], this substance gave an amino acid coverage of 48.2% and a peptide count of 10 peptides.

For “methyl CpG binding protein 2 (Rett syndrome) (from UniProt P51608 1-486)”, the amino acid coverage in test [1] was 12.3%; in test [2] it was 3.1%. Further, the figures for the peptide count in test [1] and in test [2] were 5 peptides and 1 peptides, respectively.

nucleolin (from UniProt P19338 2-710): in test [1], the amino acid coverage stood at 12% and the peptide count was found to be 6 peptides. In test [2], this substance showed an amino acid coverage of 16.3% and a peptide count of 8 peptides.

Consider “poly (ADP-ribose) polymerase 1 (from UniProt P09874 2-1014) (enzyme)”, for which the results for the amino acid coverage in test [1] and in test [2] were 41.3% and 44.2%, respectively. The peptide count in test [1] came out at 21 peptides; in test [2], 23 peptides.

In test [1], “protein arginine methyltransferase 5 (from UniProt O14744 2-637) (enzyme)” returned an amino acid coverage of 21.8% and a peptide count of 9 peptides. In addition, in test [2], the amino acid coverage worked out at 23.8% and the peptide count is 9 peptides.

In the case of “remodeling and spacing factor 1 (from UniProt Q96T23 1-1441)”, the amino acid coverage in test [1] came out at 12.2%; in test [2], 11.7%. Also, the peptide count in test [1] amounted to 12 peptides; in test [2], 10 peptides.

Consider “structure specific recognition protein 1 (from UniProt Q08945 2-709)”, for which, in test [1], the amino acid coverage is 15.8% and the peptide count came out at 9 peptides. Also, in test [2], the amino acid coverage came out at 11.9% and the peptide count is 7 peptides.

As to “suppressor of Ty 16 homolog (S. cerevisiae) (from UniProt Q9Y5B9 2-1047)”, the amino acid coverage turned out to be 17.2% in test [1] and 21.6% in test [2]. For the same substance, the peptide count in test [1] and in test [2] was 12 peptides in each case.

Take “suppressor of zeste 12 homolog (Drosophila) (from UniProt Q15022 1-739)”: in test [1], the amino acid coverage amounted to 5.1% and the peptide count came out at 3 peptides. In test [2], this substance had an amino acid coverage of 1.4% and a peptide count of 1 peptides.

For “topoisomerase (DNA) I (from UniProt P11387 2-765) (enzyme)”, in test [1], the amino acid coverage worked out at 7.4% and the peptide count was found to be 5 peptides. In test [2], this substance yielded an amino acid coverage of 4.2% and a peptide count of 3 peptides.
